Literature values in paper PMC5116920.

Molecular target: Histone H4 (UniProt P62805)

- Kd: 100 µM
Substance: TAF1 BD (from UniProt P21675)
